Source: article PMC7949051, “Comparison of angiopoietin-like protein 3 and 4 reveals structural and mechanistic similarities” (The Journal of Biological Chemistry, 2021)

T1: Bovine lipoprotein lipase (bovine, UniProt P11151 29-478)
T1 sequence (looked up): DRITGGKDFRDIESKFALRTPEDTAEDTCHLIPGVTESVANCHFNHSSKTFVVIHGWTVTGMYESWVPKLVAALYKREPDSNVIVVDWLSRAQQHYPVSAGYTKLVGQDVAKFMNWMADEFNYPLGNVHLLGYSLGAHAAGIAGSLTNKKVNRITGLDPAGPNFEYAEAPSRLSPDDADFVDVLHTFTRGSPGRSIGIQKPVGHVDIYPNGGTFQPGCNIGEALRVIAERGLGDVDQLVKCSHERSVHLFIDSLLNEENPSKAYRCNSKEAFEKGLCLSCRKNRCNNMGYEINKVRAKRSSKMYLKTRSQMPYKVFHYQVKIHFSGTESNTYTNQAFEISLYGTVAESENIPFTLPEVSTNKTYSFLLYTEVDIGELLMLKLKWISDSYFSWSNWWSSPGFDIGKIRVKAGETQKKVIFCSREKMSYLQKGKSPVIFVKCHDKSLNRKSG


Tests used:
[1] = molecular target: T1, Bovine lipoprotein lipase; test: cell-based or functional assay
[2] = molecular target: the molecule itself; test: SEC-MALS; 24-ml S-200 column, 20 mM Tris-HCl pH 8, 150 mM NaCl, 5% glycerol, 0.5 ml/min; separately concentrated SEC peaks reinjected
[3] = molecular target: T1, Bovine lipoprotein lipase; test: enzyme inhibition kinetics (global noncompetitive fit of Michaelis-Menten curves); 10 nM bovine LPL pre-incubated with ANGPTL for 10 min at 22 °C, human VLDL varied, NEFA enzyme-coupled Amplex UltraRed read-out at 37 °C, initial rates; three biological replicates; settings: both partners purified
[4] = molecular target: the molecule itself; test: SEC; HEK-293-produced N-terminal ANGPTL3; elution compared with E. coli-produced ANGPTL3

| Binder | IC50 of inhibition of LPL activity (10 nM LPL, 200 μg/ml VLDL triglycerides, NEFA/Amplex UltraRed assay) [1] [nM] | stoichiometry N [2] | Ki [3] [nM] | stoichiometry N [4] |
| --- | --- | --- | --- | --- |
| N-terminal domain of human ANGPTL4 (domain or fragment, UniProt Q9BY76 26-163, looked up, N-terminal (coiled-coil) domain of human ANGPTL4; monomer 15.4 kDa; also called N-terminal ANGPTL4; ANGPTL4 trimer) GPVQSKSPRFASWDEMNVLAHGLLQLGQGLREHAERTRSQLSALERRLSACGSACQGTEGSTDLPLAPESRVDPEVLHSLQTQLKAQNSRIQQLFHKVAQQQRHLEKQHLRIQHLQSQFGLLDHKHLDHEVAKPARRK | 4.8 | 3 | 3.6 | – |
| N-terminal domain of human ANGPTL3 (S17-R224), hexamer (domain or fragment, UniProt Q9Y5C1 17-224, looked up, N-terminal (coiled-coil) domain of human ANGPTL3, residues S17 to R224; purified protein with tag 26.8 kDa; No TEV cleavage step is described; Same construct as m2; also called ANGPTL3 peak 1; ANGPTL3 hexamer; source: E. coli Bl21 (DE3) RIPL, purified (Ni-NTA, MonoQ anion exchange, SEC; peak 1 pooled); not shown: His6 with TEV cleavage site, N-terminal, kept) SRIDQDNSSFDSLSPEPKSRFAMLDDVKILANGLLQLGHGLKDFVHKTKGQINDIFQKLNIFDQSFYDLSLQTSEIKEEEKELRRTTYKLQVKNEEVKNMSLELNSKLESLLEEKILLQQKVKYLEEQLTNLIQNQPETPEHPEVTSLKTFVEKQDNSIKDLLQTVEDQYKQLNQQHSQIKEIENQLRRTSIQEPTEISLSSKPRAPR | 14.4 | 6 | 13.7 | – |
| N-terminal ANGPTL3 (1 to 224) produced in HEK-293 cells (domain or fragment, human, UniProt Q9Y5C1 17-224, looked up, N-linked glycans (sites not given), signal peptide in the construct; human ANGPTL3 residues 1 to 224, collected from the expression medium; also called ANGPTL3 produced in mammalian cells) SRIDQDNSSFDSLSPEPKSRFAMLDDVKILANGLLQLGHGLKDFVHKTKGQINDIFQKLNIFDQSFYDLSLQTSEIKEEEKELRRTTYKLQVKNEEVKNMSLELNSKLESLLEEKILLQQKVKYLEEQLTNLIQNQPETPEHPEVTSLKTFVEKQDNSIKDLLQTVEDQYKQLNQQHSQIKEIENQLRRTSIQEPTEISLSSKPRAPR | – | – | – | 3 |
| N-terminal domain of human ANGPTL3 (S17-R224), trimer (domain or fragment, UniProt Q9Y5C1 17-224, looked up, N-terminal (coiled-coil) domain of human ANGPTL3, residues S17 to R224; purified protein with tag 26.8 kDa; Same construct as m1; also called ANGPTL3 peak 2; ANGPTL3 trimer; source: E. coli Bl21 (DE3) RIPL, purified (Ni-NTA, MonoQ anion exchange, SEC; peak 2 pooled)) SRIDQDNSSFDSLSPEPKSRFAMLDDVKILANGLLQLGHGLKDFVHKTKGQINDIFQKLNIFDQSFYDLSLQTSEIKEEEKELRRTTYKLQVKNEEVKNMSLELNSKLESLLEEKILLQQKVKYLEEQLTNLIQNQPETPEHPEVTSLKTFVEKQDNSIKDLLQTVEDQYKQLNQQHSQIKEIENQLRRTSIQEPTEISLSSKPRAPR | 5.8 | 3 | 7.5 | – |
